# Reference: patent US20040235062A1, “Method of analyzing protein occurring in cell or substance interacting with the protein” (priority 2002, published 2004)
# Molecular target: T1, GC-A receptors (Homo sapiens, UniProt P16066)
# T1 construct: expressed in transfected cells; host or cells: CHO/GC-A cells (Chinese hamster ovary), membrane fraction
# T1 sequence (P16066 33-1061): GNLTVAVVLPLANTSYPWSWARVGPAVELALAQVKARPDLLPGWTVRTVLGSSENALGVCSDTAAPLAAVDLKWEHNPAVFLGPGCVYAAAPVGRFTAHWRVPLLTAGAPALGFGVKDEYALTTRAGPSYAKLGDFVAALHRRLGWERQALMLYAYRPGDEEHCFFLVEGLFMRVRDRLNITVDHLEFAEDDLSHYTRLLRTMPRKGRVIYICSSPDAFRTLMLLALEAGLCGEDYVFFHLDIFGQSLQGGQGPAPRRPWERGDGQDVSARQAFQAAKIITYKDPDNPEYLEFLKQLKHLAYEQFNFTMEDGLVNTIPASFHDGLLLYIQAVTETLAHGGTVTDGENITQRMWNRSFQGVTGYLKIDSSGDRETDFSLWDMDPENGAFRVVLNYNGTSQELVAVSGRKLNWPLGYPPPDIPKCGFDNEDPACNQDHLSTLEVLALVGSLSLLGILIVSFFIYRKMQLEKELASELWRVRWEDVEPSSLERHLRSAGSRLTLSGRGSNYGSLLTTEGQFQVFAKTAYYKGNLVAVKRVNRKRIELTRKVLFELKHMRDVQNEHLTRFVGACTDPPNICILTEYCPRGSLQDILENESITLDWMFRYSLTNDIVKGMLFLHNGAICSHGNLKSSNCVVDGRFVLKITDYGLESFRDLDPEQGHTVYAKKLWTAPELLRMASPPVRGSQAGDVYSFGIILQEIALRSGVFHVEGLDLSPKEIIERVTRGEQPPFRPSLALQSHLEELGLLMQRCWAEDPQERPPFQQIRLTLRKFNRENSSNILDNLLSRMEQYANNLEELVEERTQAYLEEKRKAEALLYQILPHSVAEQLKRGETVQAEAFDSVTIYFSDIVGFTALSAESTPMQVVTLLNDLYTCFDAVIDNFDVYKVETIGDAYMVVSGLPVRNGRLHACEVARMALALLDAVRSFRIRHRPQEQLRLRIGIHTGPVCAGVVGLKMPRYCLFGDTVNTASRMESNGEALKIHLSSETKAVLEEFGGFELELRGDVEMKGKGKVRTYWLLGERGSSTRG
# Assay: Selectivity experiment: peptide mixture bound to GC-A expressed cell membrane fraction, MALDI-TOF-MS
# Type: binding
# Conditions: 10 pmol/μl each, CHO/GC-A vs CHO host cell membrane fraction
# Protocol: An albumin-coated membrane fraction (CHO/GC-A cells and CHO host cells) was obtained in the same manner as in Step 1. and Step 2. of Example 1.
# The resulting suspension was centrifuged to obtain pellets. The resulting pellets were further washed with 500 μl of distilled water, and centrifugation was performed again to obtain a ligand-bound membrane fraction.
# MALDI-TOF-MS measurement was made in the same manner as in Step 4. of Example 1.
row,interaction with GC-A receptors (judgement),Substance
1,do not interact with GC-A receptors,substance P
2,do not interact with GC-A receptors,"angiotensin I (DRVYIHPFHL; Angiotensin-1; UniProt P01019 25-34, looked up)"
3,do not interact with GC-A receptors,melanocyte-stimulating hormone [α-MSH]
